In IntAct's records for PubMed 9082982:

Target: sap18_drome Bin1 (UniProt Q9VEX9)
Sequence (Q9VEX9 whole entry): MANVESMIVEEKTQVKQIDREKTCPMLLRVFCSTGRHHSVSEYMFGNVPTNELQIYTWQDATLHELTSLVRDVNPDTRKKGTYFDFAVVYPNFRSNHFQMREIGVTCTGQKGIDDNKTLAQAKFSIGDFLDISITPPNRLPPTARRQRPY

Cell division control protein 42 homolog (Homo sapiens), P60953 G12V, sequence (P60953 whole entry G12V): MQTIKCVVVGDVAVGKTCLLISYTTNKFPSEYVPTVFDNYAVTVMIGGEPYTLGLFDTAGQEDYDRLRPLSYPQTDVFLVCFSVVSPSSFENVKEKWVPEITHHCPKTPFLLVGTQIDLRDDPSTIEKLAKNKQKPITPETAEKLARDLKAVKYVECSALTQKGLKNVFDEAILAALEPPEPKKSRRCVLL
Cell division control protein 42 homolog (Homo sapiens), P60953 D118A, sequence (P60953 whole entry D118A): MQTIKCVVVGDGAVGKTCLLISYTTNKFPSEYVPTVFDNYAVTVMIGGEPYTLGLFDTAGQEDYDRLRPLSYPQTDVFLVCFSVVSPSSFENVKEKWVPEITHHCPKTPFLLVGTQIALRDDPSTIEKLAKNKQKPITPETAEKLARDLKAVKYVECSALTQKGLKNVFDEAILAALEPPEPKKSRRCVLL

In the case of “Cell division control protein 42 homolog (Homo sapiens), P60953 D118A”, the “effect of a mutation on the interaction” value is reported as “disrupting interaction”.
For “Cell division control protein 42 homolog (Homo sapiens), P60953 G12V”, the “effect of a mutation on the interaction” value was “increasing interaction”.
